Sequences and labels used below:
B1: ZNF277 (parent)
chain: ILREELQKQRLREILEQQQQERND
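Also: lentivirally expressed fusions sorted by FACS into six bins by GFP to DsRed ratio, PSI derived from sequencing read proportions per bin multiplied by bin number.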

The variants in the series derive from B1. Put plainly: protein stability index of a GFP-peptide fusion (GPS, HEK-293T) (PSI 1-6); higher = more stable. The conditions noted are these: c terminus: a fixed tail appended.
As for ILREELQKQRLREILEQQQQRRND [E21R], the protein stability index was 2.69. As to ILREELQKQRLREILEQQQQMRND [E21M], the protein stability index is 3.73.

In the case of ILREELQKQRLREILEQQQQNRND [E21N], the protein stability index came to 3.9.

For the variant ILREELQKQRLREILEQQQQGRND [E21G], the protein stability index was 4.04. The value for ILREELQKQRLREILEQQQQSRND [E21S] was 4.41. The value for ILREELQKQRLREILEQQQQLRND [E21L] was 3.52; that for ILREELQKQRLREILEQQQQVRND [E21V] was 3.2. The figure for ILREELQKQRLREILKQQQQERND [E16K] is 3.83; for ILREELQKQRLREILWQQQQERND [E16W] it is 2.87. Regarding ILREELQKQRLREILVQQQQERND [E16V], the protein stability index came to 3.9. For the variant ILREELQKQRLREILLQQQQERND [E16L], the protein stability index was 3.63. ILREELQKQRLREILGQQQQERND [E16G]: the protein stability index amounted to 3.51. The value for ILREELQKQRLREILQQQQQERND [E16Q] was 3.77; that for ILREELQKQRLREILRQQQQERND [E16R] was 3.53. The value for ILREELQKQRLREILIQQQQERND [E16I] was 3.74; that for ILREELQKQRLREILPQQQQERND [E16P] was 4.8; that for ILREELQKQRLREILTQQQQERND [E16T] was 4.71. The figure for ILREELQKQRLREILSQQQQERND [E16S] is 4.04; for ILREELQKQRLREILNQQQQERND [E16N] it is 3.89; for ILREELQKQRLREILMQQQQERND [E16M] it is 3.81. On to ILREELQKQRLREILHQQQQERND [E16H], for which the protein stability index was 3.87.

As to ILREELQKQRLREILEQGQQERND [Q18G], the protein stability index turned out to be 4.57. The figure for ILREELQKQRLREILEQIQQERND [Q18I] is 2.52; for ILREELQKQRLREILEQVQQERND [Q18V] it is 3.83.

For ILREELQKQRLREILEQNQQERND [Q18N], the protein stability index was determined as 4.37. The value for ILREELQKQRLREILEQPQQERND [Q18P] was 4.68; that for ILREELQKQRLREILEQCQQERND [Q18C] was 3.31. The value for ILREELQKQRLREILEQLQQERND [Q18L] was 3.37; that for ILREELQKQRLREILEQTQQERND [Q18T] was 3.57; that for ILREELQKQRLREILEQKQQERND [Q18K] was 3.72.

As to ILREELQKQRLREILEQYQQERND [Q18Y], the protein stability index was found to be 2.9.

Consider ILREELQKQRLREILEQEQQERND [Q18E], for which the protein stability index was 4.93. Turning to ILREELQKQRLREILEQFQQERND [Q18F], the protein stability index is 4.37. Consider ILREELQKQRLREILEQRQQERND [Q18R], for which the protein stability index was 4.97.

On to ILREELQKQRLREILEQMQQERND [Q18M], for which the protein stability index was determined as 3.59.

Consider ILREELQKQRLREILEQWQQERND [Q18W], for which the protein stability index was 4.15. The figure for ILREELQKQRLREILEQAQQERND [Q18A] is 3.98. The value for ILREELQKQRLREILEQSQQERND [Q18S] was 3.99. ILREELQKQRLREILEQDQQERND [Q18D]: the protein stability index turned out to be 4.46. The value for ILREELQKQRLREILEQQQQEWND [R22W] was 3.72. With ILREELQKQRLREILEQQQQEFND [R22F], the protein stability index came to 3.81. The value for ILREELQKQRLREILEQQQQELND [R22L] was 4.46; that for ILREELQKQRLREILEQQQQEMND [R22M] was 4.45.

Take ILREELQKQRLREILEQQQQENND [R22N]: the protein stability index is 4.75. The figure for ILREELQKQRLREILEQQQQECND [R22C] is 4.48; for ILREELQKQRLREILEQQQQEAND [R22A] it is 4.4; for ILREELQKQRLREILEQQQQESND [R22S] it is 4.73. The value for ILREELQKQRLREILEQQQQEPND [R22P] was 4.57; that for ILREELQKQRLREILEQQQQEEND [R22E] was 4.61; that for ILREELQKQRLREILEQQQQEGND [R22G] was 4.67. The figure for ILREELQKQRLREILEQQQQEIND [R22I] is 3.81.

In the case of ILREELQKQRLREILEQQQQEYND [R22Y], the protein stability index came to 4.54.

On to ILREELQKQRLREILEQQQQEDND [R22D], for which the protein stability index is 4.92. The figure for ILREELQKQRLREILEQQQQEQND [R22Q] is 4.44.

As for ILREELQKQRLREILEQQQQEVND [R22V], the protein stability index turned out to be 3.53.

For ILREELQKQRLREILEQQQQEKND [R22K], the protein stability index was 4.63. ILREELQKQRLREILEQQQQEHND [R22H]: the protein stability index worked out at 4.4. On to ILREELQKQRLREILEQQQQETND [R22T], for which the protein stability index was 4.76. The value for ILREELQKQRLREILEQQQNERND [Q20N] was 4.3.

For ILREELQKQRLREILEQQQRERND [Q20R], the protein stability index was 4.41. The figure for ILREELQKQRLREILEQQQEERND [Q20E] is 5.03. The figure for ILREELQKQRLREILEQQQGERND [Q20G] is 4.22; for ILREELQKQRLREILEQQQPERND [Q20P] it is 4.17; for ILREELQKQRLREILEQQQMERND [Q20M] it is 3.96.

With ILREELQKQRLREILEQQQFERND [Q20F], the protein stability index was determined as 3.44. The figure for ILREELQKQRLREILEQQQVERND [Q20V] is 3.74; for ILREELQKQRLREILEQQQKERND [Q20K] it is 4.51; for ILREELQKQRLREILEQQQSERND [Q20S] it is 4.37.

Consider ILREELQKQRLREILEQQQYERND [Q20Y], for which the protein stability index came to 4.16. Turning to ILREELQKQRLREILEQQQLERND [Q20L], the protein stability index was found to be 4.05.

With ILREELQKQRLREILEQQQHERND [Q20H], the protein stability index was found to be 3.94.

In the case of ILREELQKQRLREILEQQQTERND [Q20T], the protein stability index was found to be 3.29.

ILREELQKQRLREILEQQQCERND [Q20C]: the protein stability index stood at 4.2. As for ILREELQKQRLREILEQQQWERND [Q20W], the protein stability index was 3.18. The figure for ILREELQKQRLREILEQQQAERND [Q20A] is 4.93; for ILREELQKQRLREILEQQQIERND [Q20I] it is 4.36. On to ILREELQKQRLREILEQQQQERHD [N23H], for which the protein stability index is 4.04.

As for ILREELQKQRLREILEQQQQERLD [N23L], the protein stability index is 3.92. The value for ILREELQKQRLREILEQQQQERVD [N23V] was 3.89; that for ILREELQKQRLREILEQQQQERRD [N23R] was 3.75; that for ILREELQKQRLREILEQQQQERQD [N23Q] was 4.13.

For the variant ILREELQKQRLREILEQQQQERED [N23E], the protein stability index came to 4.59.

Take ILREELQKQRLREILEQQQQERKD [N23K]: the protein stability index amounted to 4.1.

Consider ILREELQKQRLREILEQQQQERFD [N23F], for which the protein stability index was 3.73. The value for ILREELQKQRLREILEQQQQERYD [N23Y] was 3.56. On to ILREELQKQRLREILEQQQQERID [N23I], for which the protein stability index stood at 4.02.

Take ILREELQKQRLREILEQQQQERAD [N23A]: the protein stability index was 4.53.

For ILREELQKQRLREILEQQQQERCD [N23C], the protein stability index turned out to be 3.98. With ILREELQKQRLREILEQQQQERGD [N23G], the protein stability index was determined as 3.98. Regarding ILREELQKQRLREILEQQQQERWD [N23W], the protein stability index is 3.22. The value for ILREELQKQRLREILEQQQQERSD [N23S] was 4.05. The value for ILREELQKQRLREILEQQQQERMD [N23M] was 4.14; that for ILREELQKQRLREILEQQQQERPD [N23P] was 4.47. The figure for ILREELQKQRLREILEQQQQERDD [N23D] is 4.96; for ILREELQKQRLREILEQQQQERTD [N23T] it is 4.37.

Values taken from the supplement of paper PMC10567573.
